The results in this text go back to patent publication US20160333110A1 (CHIOME BIOSCIENCE, published 2016).

In test [1] the target is T1, recombinant hTACSTD2-Fc-His protein (Creative BioMart) (human, UniProt P09758 27-274, limits assumed).
T1 construct: bought protein; also called hTROP-2 (low-density antigen-coated ELISA); not shown: Fc part of the bought fusion protein; not described; His tag
T1 sequence: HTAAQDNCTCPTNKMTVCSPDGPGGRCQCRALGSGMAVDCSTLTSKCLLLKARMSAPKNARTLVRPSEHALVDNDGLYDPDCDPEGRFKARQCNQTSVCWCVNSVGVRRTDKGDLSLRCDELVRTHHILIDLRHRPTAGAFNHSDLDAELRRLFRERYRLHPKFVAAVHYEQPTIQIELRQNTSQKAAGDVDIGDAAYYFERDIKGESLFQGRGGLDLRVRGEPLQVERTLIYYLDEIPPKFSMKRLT
Put plainly: low-density antigen-coated ELISA, plate coated with 0.1 µg/mL hTACSTD2-Fc-His, purified antibodies; K5-70 (parental antibody); low-density ELISA, 0.1 µg/mL hTROP-2 coat.

In test [2] the target is T1, recombinant hTACSTD2-Fc-His protein …. Nature of the test: low-density antigen-coated ELISA, plate coated with 0.1 µg/mL hTACSTD2-Fc-His. The protocol: Furthermore, antigen affinity was also examined by an ELISA method. ELISA was carried out using an ELISA plate which was coated with the recombinant protein of the hTROP-2 extracellular region as described in Example 3. […] Thereafter, the resultant was washed with a washing buffer (PBS containing 0.05% Tween 20), and a blocking buffer (PBS containing 2% skim milk and 0.05% Tween 20) was then added thereto (200 μl/well) to block it (at room temperature for 1 hour). The resultant was washed with a washing buffer. […] The obtained dilution samples were each added in an amount of 50 μl/well to the above-described ELISA plate (at room temperature for 2 hours). […] After the mixture had been washed with a washing buffer, a TMB (3,3′,5,5′-tetramethylbenzidine: SIGMA) substrate solution was added (50 μl/well) to the resultant to carry out a color reaction. Then, 1 M sulfuric acid (25 μl/well) was added to the reaction product to terminate the reaction. Using Microplate reader Model 550 (BioRad), an absorbance at 450 nm was measured with an absorbance at 655 nm used as a reference.

The target of test [3] is T2, peptide No. 10 of Table 11 (SEQ ID NO: 218) (human).
T2 peptide: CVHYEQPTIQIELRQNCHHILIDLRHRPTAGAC
Put plainly: PEPSCAN/CLIPS peptide ELISA, antibody 1 µg/mL. As to the method:
(§1) 5034 types of the synthesized peptides were covalently bound to PEPSCAN cards (455 peptides/card), and the binding of the synthesized peptides to antibodies was then analyzed by the ELISA method. […] After washing, the resultant was allowed to react with a 1000-fold diluted peroxidase-secondary antibody complex at 25° C. for 1 hour. After washing, a substrate solution (a solution containing 2,2′-azino-di-3-ethylbenzthiazoline sulfonate (ABTS) and 2 μL of 3% hydrogen peroxide solution) was added to the reaction solution, followed by a chromogenic reaction for 1 hour. The binding activity of the antibodies was quantified by photographing with a CCD camera and then performing an image analysis.

In test [4] the target is T3, peptide No. 3 of Table 11 (SEQ ID NO: 211) (human).
T3 peptide: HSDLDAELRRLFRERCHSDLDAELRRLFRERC
Put plainly: PEPSCAN/CLIPS peptide ELISA, antibody 1 µg/mL. The protocol:
as §1

The target in test [5] is T4, peptide No. 7 of Table 11 (SEQ ID NO: 215) (human).
T4 peptide: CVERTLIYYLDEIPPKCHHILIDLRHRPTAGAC
Put plainly: PEPSCAN/CLIPS peptide ELISA, antibody 1 µg/mL. As to the method:
as §1

Test [6] has as its target T5, peptide No. 19 of Table 11 (SEQ ID NO: 227) (human).
T5 peptide: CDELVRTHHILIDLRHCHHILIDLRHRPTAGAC
Nature of the test: PEPSCAN/CLIPS peptide ELISA, antibody 1 µg/mL. As to the method: as §1

The target in test [7] is T6, peptide No. 23 of Table 11 (SEQ ID NO: 231) (human).
T6 peptide: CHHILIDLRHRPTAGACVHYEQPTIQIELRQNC
Nature of the test: PEPSCAN/CLIPS peptide ELISA, antibody 1 µg/mL. The protocol: as §1

Test [8] deals with T7, peptide No. 4 of Table 11 (SEQ ID NO: 212) (human).
T7 peptide: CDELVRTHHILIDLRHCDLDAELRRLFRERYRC
Nature of the test: PEPSCAN/CLIPS peptide ELISA, antibody 1 µg/mL. As to the method:
as §1

The target of test [9] is T8, peptide No. 15 of Table 11 (SEQ ID NO: 223) (human).
T8 peptide: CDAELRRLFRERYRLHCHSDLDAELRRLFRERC
Nature of the test: PEPSCAN/CLIPS peptide ELISA, antibody 1 µg/mL. As to the method: as §1

Test [10] has as its target T9, peptide No. 6 of Table 11 (SEQ ID NO: 214) (human).
T9 peptide: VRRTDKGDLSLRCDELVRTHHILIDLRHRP
Put plainly: PEPSCAN/CLIPS peptide ELISA, antibody 1 µg/mL. As to the method:
as §1

The target of test [11] is T10, peptide No. 8 of Table 11 (SEQ ID NO: 216) (human).
T10 peptide: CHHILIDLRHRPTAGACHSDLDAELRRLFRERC
Put plainly: PEPSCAN/CLIPS peptide ELISA, antibody 1 µg/mL. As to the method: as §1

For test [12], the target named is T11, peptide No. 11 of Table 11 (SEQ ID NO: 219) (human).
T11 peptide: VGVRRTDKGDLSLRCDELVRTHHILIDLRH
Nature of the test: PEPSCAN/CLIPS peptide ELISA, antibody 1 µg/mL. As to the method:
as §1

In test [13] the target is T12, peptide No. 21 of Table 11 (SEQ ID NO: 229) (human).
T12 peptide: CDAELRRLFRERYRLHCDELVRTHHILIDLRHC
Put plainly: PEPSCAN/CLIPS peptide ELISA, antibody 1 µg/mL. As to the method: as §1

B1: anti-hTROP-2 monoclonal antibody clone K5-70 (antibody, mouse IgG2a, V domains shown)
VH: QVQLQQPGAELVRPGASVKLSCKASGYTFTIYWINWVKQRPGQGLEWIGNIYPSDSYTNYNQKFKDKATLTVDKSSSTAYMQLSSPTSEDSAVYYCTRTSMADYWGQGTTLTVSS
VL: DILLTQSPAILSVSPGERVSFSCRASQSIGTSIHWYQQRTNGSPRLLIKYASESISGIPSRFSGSGSGTDFTLSINSVESEDIADYYCQQSNSWPFTFGSGTKLEIK
notes: mouse IgG2a, hybridoma FERM BP-11251; also called K5-70 antibody; mouse K5-70 antibody
As to B1, the EC50 amounted to 0.0114 µg/mL in [1] and 0.012 µg/mL in test [2].

B2: anti-hTROP-2 monoclonal antibody clone T6-16 (antibody, mouse IgG2a, V domains shown)
VH: EVQLQQSGPELVKPGASVKISCKASGYTFTDYNMHWVKQSHGKNLEWIGYIYPYNGGTGYNQRFKSRATMTVDKSSSTAYMELRSLTSDDSAVYYCAREDYGSSPSYAMDYWGQGTSVIVSS
VL: DVVMTQTPLSLPVSLGDQASISCRSSQSLVHGNGNTYLHWYLQKPGQSPKLLIYKVSNRFSGVPDRFSGSGSGTDFTLKISRVEAEDLGVYFCSQTTHVPTFGSGTKLEIK
notes: mouse IgG2a, hybridoma FERM BP-11346; also called T6-16 antibody
B2: the “binding of 16-16” value in test [3] came out at 602; in [4] it was 714; in test [5], 626; in test [6], 534; in test [7] it was 524; in test [8], 713. Also, the “binding of 16-16” value in test [9] amounted to 566; in [10], 670; in test [11], 620; in test [12] it was 601; in test [13], 527. Moreover, the half-maximal effective concentration (EC50) in test [2] was found to be 0.041 µg/mL.
